From the RNAGym collection of RNA variant scans (doi:10.1073/pnas.2313332121)

B1: TPR t1 (parent)
chain: GACCAAUCUGCCCUCAGAGCUCGAGAACAUCUUCGGAUGCAGAGGAGGCAGGCUUCGGUGGCGCGAUAGCGCCAACGUCCUCAACCUCCAAUGCAUCCCACCACAUGAUGAUGCCUGAAGAGCCUUGGUUUUUUG

Variants of: B1
Assay: polymerase ribozyme fitness, log enrichment relative to wild type (log ratio); higher = more active; in vitro selection for triplet polymerase activity
How it was run: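 In triplicate, a single round of in vitro selection was run on each mutant library, PCR-built and transcribed, covering one subunit of a heterodimeric triplet polymerase ribozyme. Frozen incubation at −7 °C followed annealing with a biotinylated primer, partner subunit and triplets, and extended constructs were then gel-excised, streptavidin-captured and taken through RT-PCR. Fitness is the logarithm of genotype enrichment over wild-type enrichment, from inverse-variance-weighted replicate averages of Illumina-sequenced inputs and outputs. […] only genotypes with ≥10 input reads and ≥1 read per output were kept.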

| Variant | polymerase ribozyme fitness (log ratio) |
| --- | --- |
| U59C C114A U130A | -2.23 |
| C8A G25U | -4.13 |
| C70G G127U | -3.25 |
| A5U G44A A46U C56U U126G U133A | -2.99 |
| G113C G128U | -4.01 |
| G61U G77C A119U | -1.73 |
| C56G C123U | 0.748 |
| A5C G51A C86G | -4.05 |
| G45A C53U | -1.11 |
| C64U C114U | -1.47 |
| C12G A43G | -1.17 |
| C15A U92A | -4.5 |
| A29U C56U A74U A100C | -3.55 |
| G47A A83U | -0.645 |
| G44A G47U C94A | -2.96 |
| C53G G120A G127U | -0.0103 |
| G63A G113U | -2.82 |
| G48A C82A | -1.42 |
| U112A G117A G120U C124G | -1.37 |
| A29C C40U A41U C124U | -3.03 |
| G25A G45U C88G A90G C99G C115A | -7.43 |

| Variant | polymerase ribozyme fitness (log ratio) |
| --- | --- |
| A41U A90C C115G | -4.39 |
| G42C C56G C72A G77C A100U U132A | -3.99 |
| A5G G52U U92C C114G | -5.18 |
| C79U U129C | 0.161 |
| C11G U59A A68U | -7.59 |
| C11G C12A G51A C80A U116G | -5.92 |
| G120C G128C | -2.04 |
| C20G C49A U96G U112G C115G C123A | -7.57 |
| G10U C28G A46U G52A G63A U87C | -5.27 |
| C49G G65U | -4.97 |
| G39A G69U U96A C104A G113A U126C | -3.63 |
| C11U G47A U87A G93U G113C | -4.49 |
| G48A C56U C86A C94A A111C | -2.79 |
| C115U G117A | -1.61 |
| G63A U78C A83G C88G | -3 |
| G65C C123G | -3.83 |
| A37U G48A G61C U116A | -4.18 |
| A2C U54C G110A | -3.04 |
| C88U G120U | 0.291 |
| C8U A18C A41U A50G C72G C101U | -3.51 |
| C104U U112G | 0.761 |

| Variant | polymerase ribozyme fitness (log ratio) |
| --- | --- |
| C88U A119G | 1.04 |
| C53A A105U | -2.72 |
| U14A G71C G128A | -3.99 |
| C56U C88A G127C | -1.72 |
| A74C U106A G120U C124G | 1.17 |
| C102A U125G | -2.8 |
| C70U C85G U87A A111G G120A | -5.35 |
| A50C A66U C72U U81G C85A | -3.05 |
| G42A U78C | -1.87 |
| U106A C124A | 1.81 |
| C49G C56G U87A G117A | -4.51 |
| C73A C94G | -0.66 |
| G48U C79G | -3.52 |
| G44U A95C | -2.44 |
| G51U U59G G63C G77C C80U U87C C124G U131G | -0.602 |
| C82G G113A | -1.04 |
| A26U C94U | -2.76 |
| G57A G63U | -2.43 |
| G110A G127C | -1.94 |
| G19A G47A C88U | -2.72 |
| C56A C88U C101U U106G C123A | -1.58 |

| Variant | polymerase ribozyme fitness (log ratio) |
| --- | --- |
| G61C C89A U132C | -3.89 |
| C13A U32C U109G G120C | -5.75 |
| G10A G120U G122A | 1.51 |
| C97U | -0.53 |
| C13A A46U A74U | -3.21 |
| C79U A121C | 1.81 |
| A6C G52A U81C A121C C123A | -0.955 |
| A27G G45C G63A C104A U131C | -6.14 |
| C8G U32C A90C | -0.367 |
| C20A C98G | -5.84 |
| A43C C49G A84G C115U G135U | -6.22 |
| C13U C98A | -4.9 |
| G60C U130G | -1.28 |
| C8G A18U U21A C79A C123G | -3.84 |
| C49G U55G U129A | -1.82 |
| C89G G113C G122U | -2.99 |
| G48C C79U C101A | -1.57 |
| C13U A83G | 0.0266 |
| A46U C88A | -1.18 |
| U9C G60U A105U A119G | -1.05 |
| C11G G107C | -4.6 |
